Experiment [1] concerns the target T1, E. coli RAGE Construct #7, 6His-(Thr)-[RAGE (235-336)] (human).
T1 construct: N-terminal 6His-(Thr) tag is part of the entry; expressed in E. coli; also called RAGE protein #7
T1 chain: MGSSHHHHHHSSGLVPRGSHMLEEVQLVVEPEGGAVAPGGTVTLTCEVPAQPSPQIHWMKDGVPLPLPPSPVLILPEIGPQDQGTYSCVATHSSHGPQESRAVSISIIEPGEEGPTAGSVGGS
Put plainly: ELISA, antigen coated at 1 ug/ml. The protocol:
(§1) Antigens (purified construct #1-7 proteins) were diluted into Coating Buffer [100 mM NaHCO₃, pH 8.2] to 1 μg/ml, and 100 μl of the resulting solution was then aliquoted into a 96-well Nunc Immuno Plate (Maxi-Sorb Surface, flat bottom, catalog #439454). The plate was sealed with sealing film and incubated at 4° C. overnight. The next day, the plate wells were each washed 3 times with 150 μL PBST buffer [Sigma PBS+0.05% Tween 20]. Then 300 ul of blocking solution (3% NFDM in PBST) was added to each well. The plate was incubated for 2 hours at room temperature and shaking at 100 rpm. After the incubation step, each well was again washed three times with 150 uL PBST. 100 ul of the corresponding antibody to be tested (i.e. 7F9, 11E6, and 4E5) was added at various dilutions made in PBST/0.5% BSA. The plate was then sealed with sealing film and incubated for 2 hours at room temperature and shaking at 100 rpm. Next the antibody solution was drained out of the wells, and each well then washed three times with 200 ul PBST. To each well then 200 ul of a 1:5000 dilution (in PBST/1% NFDM) of conjugated secondary antibody [Donkey anti-mouse HRPO conjugate, Jackson Immuno Research, Catalog #715-035-150] was added. […] Finally, 50 μL of 2M H₂SO₄ was added to each well to stop the reaction and the […] of each well was measured using a microtiter plate reader.
Background: ELISA stands for enzyme-linked immunosorbent assay.

Experiment [2] has as its target T1, E. coli RAGE Construct #7, …. Kind of experiment: binding analysis of RAGE mutants of human sRAGE expressed in E. coli.
For experiment [3], the target named is T2, RAGE fragment coated in Fig. 4C (antigen not named on the sheet).
T2 construct: Placeholder: the panel cannot be tied to one of m19-m25
Kind of experiment: direct ELISA: purified E. coli RAGE construct protein coated at 1 ug/mL (construct not named for this panel), mAb titrated, donkey anti-mouse HRP, TMB. The protocol:
as §1

As usually defined, the EC50 (read off the curve) is the midpoint of the concentration-response curve.

B1: anti-human RAGE monoclonal antibody 4E5 (murine, hybridoma-derived) (antibody, V domains shown)
VH: QVQLQQSGAELVRPGTSVKVSCKASGYAFNNYLIEWIKQRPGQGLEWIGVINPGSGGTNHNEKFKVKATLTADKSSSTAYIQLSSLTSDDSAVYFCARSAGTARARFAYWGQGTLVTVSA
VL: DIQMTQSPSSLSASLGERVSLTCRASQDIGSSLNWLQQEPDGTIKRLIYATSSLDSGVPKRFSGSRSGSDYSLTISSLESEDFVDYYCLQYASFPFTFGSGTKLEIKR
notes: also called mAb4E5; ML37-4E5
Consider B1, for which the binding result in experiment [1] is reported as “binds”.

B2: anti-human RAGE monoclonal antibody 11E6 (murine, hybridoma-derived) (antibody, V domains shown)
VH: QIQLVQSGPELKKPGETVKISCKASGYTFTNFGMNWVKQAPGKGLKWMGYINTNTGESIYSEEFKGRFAFSLETSASTAYLQINNLKNEDTATYFCARSRMVTAYGMDYWGQGTSVTVSS
VL: DIVMTQSQKFMSTSVGDRVSITCKASQNVGTAVAWYQQRPGQSPKLLIFSASNRYTGVPDRFTGSGSGTDFTLTLSNMQPEDLADYFCQQYSSYPLTFGVGTKLELKR
notes: also called mAb11E6; ML37-11E6
In the case of B2, in experiment [2], the binding result was “binds”. The half-maximal effective concentration (EC50 (read off the curve)) in experiment [3] is around 0.03 nM.

The values are drawn from patent publication US20150307610A1 (AbbVie / Abbott, published 2015).
